Measurements published in paper PMC2879411, “Molecular Basis for the Dual Function of Eps8 on Actin Dynamics: Bundling and Capping” (PLoS Biology, 2010).

Target: monomeric actin (CaATP-G-actin) from rabbit muscle, unlabelled (rabbit, UniProt P68135 1-377)
Test: cell-based or functional assay

Kd from inhibition of barbed end growth (spectrin-actin seeds): 40 µM | Kd from inhibition of pointed end growth (gelsolin-actin seeds): 32 µM
Binder: VCPEGARVFNQITVQKAALEDSNG [Eps8 isolated predicted helix H5 (residues 765–788)]
